Biological target: microtubules made from mutant yeast tubulin containing no β-CTT (Saccharomyces cerevisiae) (UniProt P09733)
Test: co-sedimentation; microtubule binding spin-down assay with yeast tubulin polymerized at 30 °C, experiment carried out at 30 °C; anti-tubulin and anti-CGN western blot

B1: GST-CGN(1-406) (domain or fragment)
chain: MEQAPNMAEPRGPVDHGVQIRFITEPVSGAEMGTLRRGGRRPAKDARASTYGVAVRVQGIAGQPFVVLNSGEKGGDSFGVQIKGANDQGASGALSSDLELPENPYSQVKGFPAPSQSSTSDEEPGAYWNGKLLRSHSQASLAGPGPVDPSNRSNSMLELAPKVASPGSTIDTAPLSSVDSLINKFDSQLGGQARGRTGRRTRMLPPEQRKRSKSLDSRLPRDTFEERERQSTNHWTSSTKYDNHVGTSKQPAQSQNLSPLSGFSRSRQTQDWVLQSFEEPRRSAQDPTMLQFKSTPDLLRDQQEAAPPGSVDHMKATIYGILREGSSESETSVRRKVSLVLEKMQPLVMVSSGSTKAVAGQGELTRKVEELQRKLDEEVKKRQKLEPSQVGLERQLEEKTEECSRL
reduction in binding against wild-type yeast tubulin: 75%

Source: publication PMC4976216
